Source: article PMC4526461 (The Biochemical journal, 2015)
Numbering of substitutions follows the chain as printed. Several values for one entry are separate records, joined by “and”; a condition that tells them apart may be missing. Equal entries are not always repeated.

B1: recombinant mouse neutral sphingomyelinase-2 with C-terminal FLAG and 6xHis tags (pET-32a-nSMase-2-FLAG-6xHis), expressed in Rosetta2 (DE3) pLysS (enzyme, UniProt Q9JJY3 1-655, looked up)
chain: MVLYTTPFPNSCLSALHAVSWALIFPCYWLVDRLLASFIPTTYEKRQRADDPCCLQLFCTVLFTPVYLALLVAALPFAFLGFIFWSPLQSARRPYSYSRLEDKNPAGGAALLSEWKGTGAGKSFCFATANVCLLPDSLARLNNVFNTQARAKEIGQRIRNGAARPQIKIYIDSPTNTSISAASFSSLVSPQGGDGSRAVPGSIKRTASVEYKGDGGRHPSDEAANGPASGEQADGSLEDSCIVRIGGEEGGRPQEADDPAAGSQARNGAGGTPKGQTPNHNQRDGDSGSLGSPSASRESLVKARAGQDSGGSGEPGANSKLLYKTSVVKKAAARRRRHPDEAFDHEVSAFFPANLDFLCLQEVFDKRAAAKLKEQLHGYFEYILYDVGVYGCHGCCNFKCLNSGLFFASRYPVMDVAYHCYPNGCSFDALASKGALFLKVQVGSTPQDQRIVGYIACTHLHAPPEDSAVRCEQLDLLQDWLADFRKSTSSTSTANPEELVVFDVICGDLNFDNCSSDDKLEQQHSLFTRYKDPCRLGPGEEKPWAIGTLLDTNGLYDEDVCTPDNLQKVLESEEGRREYLAFPTSKSPGAGQKGRKDLLKGNGRRIDYMLHAEEGLCPDWKAEVEEFSFITQLSGLTDHLPVAMRLMVSAGEEEA
B2: nSMase-2 single-point mutant Cys617Ser (enzyme, mouse, UniProt Q9JJY3 1-655, looked up)
chain: B1 chain with C617S
B3: nSMase-2 single-point mutant Cys561Ser (enzyme, mouse, UniProt Q9JJY3 1-655, looked up)
chain: B1 chain with C561S

Target: the molecule itself
Test: non-reducing SDS/PAGE and Western blot

| Protein | stoichiometry N | decrease in multimer to monomer ratio against wild-type [%] |
| --- | --- | --- |
| B1 | 2 and 3 |  |
| B2 |  | ~50 |
| B3 |  | ~50 |
